Assay results from patent publication US20240025999A1 (BIOVENTURES, published 2024).

T1: HPV 16 E6 91-115 region, given as three overlapping 15-mer peptides (91-105 YGTTLEQQYNKPLCD, SEQ ID NO:21); … (human papillomavirus type 16)
T1 peptide: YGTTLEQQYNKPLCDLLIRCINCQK


Target: T1, HPV 16 E6 91-115 region, given as three …
Experiment: cell-based or functional assay

Binder	Frequency (%) of the clonotype among IFN-gamma secreting cells sorted after peptide stimulation
TCR of clonotype 1 (TCR beta CDR3 CASSPTSGGLTWDEQYF, SEQ ID NO:1), HPV 16 E6 91-115 specific T cell clonotype of subject 6 (TCR, V domains shown) V domain 1: AQSVAQPEDQVNVAEGNPLTVKCTYSVSGNPYLFWYVQYPNRGLQFLLKYITGDNLVKGSYGFEAEFNKSQTSFHLKKPSALVSDSALYFCAVRAPSGSARQLTFGSGTQLTVLP V domain 2: EAGVAQSPRYKIIEKRQSVAFWCNPISGHATLYWYQQILGQGPKLLIQFQNNGVVDDSQLPKDRFSAERLKGVDSTLKIQPAKLEDSAVYLCASSPTSGGLTWDEQYFGPGTRLTVTE	33.3%
TCR of clonotype 2 (TCR beta CDR3 CASSHNSGREGNEQFF, SEQ ID NO:2), HPV 16 E6 91-115 specific T cell clonotype of subject 6 (TCR, V domains shown) V domain 1: GENVEQHPSTLSVQEGDSAVIKCTYSDSASNYFPWYKQELGKRPQLIIDIRSNVGEKKDQRIAVTLNKTAKHFSLHITETQPEDSAVYFCAPRVTGGGNKLTFGTGTQLKVEL V domain 2: GAGVSQSPRYKVAKRGQDVALRCDPISGHVSLFWYQQALGQGPEFLTYFQNEAQLDKSGLPSDRFFAERPEGSVSTLKIQRTQQEDSAVYLCASSHNSGREGNEQFFGPGTRLTVLE	17%
TCR of clonotype 3 (TCR beta CDR3 CASSFPGENEQFF, SEQ ID NO:3), HPV 16 E6 91-115 specific T cell clonotype of subject 6 (TCR, V domains shown) V domain 1: GDSVTQMEGPVTLSEEAFLTINCTYTATGYPSLFWYVQYPGEGLQLLLKATKADDKGSNKGFEATYRKETTSFHLEKGSVQVSDSAVYFCALTLSGSARQLTFGSGTQLTVLP V domain 2: DAGVIQSPRHEVTEMGQEVTLRCKPISGHNSLFWYRQTMMRGLELLIYFNNNVPIDDSGMPEDRFSAKMPNASFSTLKIQPSEPRDSAVYFCASSFPGENEQFFGPGTRLTVLE	9.8%
TCR of clonotype 4 (TCR beta CDR3 CASSWEAGQETQYF, SEQ ID NO:4), HPV 16 E6 91-115 specific T cell clonotype of subject 6 (TCR, V domains shown) V domain 1: GENVEQHPSTLSVQEGDSAVIKCTYSDSASNYFPWYKQELGKGPQLIIDIRSNVGEKKDQRIAVTLNKTAKHFSLHITETQPEDSAVYFCAASAPGRTDKLIFGTGTRLQVFP V domain 2: KAGVTQTPRYLIKTRGQQVTLSCSPISGHRSVSWYQQTPGQGLQFLFEYFSETQRNKGNFPGRFSGRQFSNSRSEMNVSTLELGDSALYLCASSWEAGQETQYFGPGTRLLVLE	8.6%
